# According to publication doi:10.1101/2021.09.02.458738:
# Molecular target: ArPEC25-mCherry (Ascochyta rabiei)
# Experiment: FRET or BRET
substance,measurement,value
CaβLIM1a-GFP (natural protein),FRET efficiency,2.75
